Test results taken from the Immune Epitope Database (IEDB).
Each block holds one sequence with its values, some of them ahead of it.

Assays:
HLA-A*02:01 [1] = assay: IEDB peptide-MHC binding, purified MHC/competitive/fluorescence; ≥ and ≤ were set here for values at or beyond the usual limits of such assays
HLA-A*30:01 = assay: IEDB peptide-MHC binding, purified MHC/competitive/radioactivity; filed as Kd, often an IC50 or EC50 that approximates it; ≥ and ≤ were set here for values at or beyond the usual limits of such assays
HLA-A*02:01 [2] = assay: IEDB peptide-MHC binding, purified MHC/competitive/fluorescence; filed as Kd, often an IC50 or EC50 that approximates it; ≥ and ≤ were set here for values at or beyond the usual limits of such assays
HLA-A*30:02 = assay: IEDB peptide-MHC binding, purified MHC/competitive/radioactivity; filed as Kd, often an IC50 or EC50 that approximates it; ≥ and ≤ were set here for values at or beyond the usual limits of such assays
HLA-A*26:01 = assay: as above
HLA-A*23:01 = assay: as above
HLA-A*24:02 = assay: as above
HLA-A*29:02 = assay: as above
HLA-A*01:01 [3] = assay: as above
HLA-A*01:01 [4] = assay: IEDB peptide-MHC binding, purified MHC/direct/fluorescence; filed as Kd, often an IC50 or EC50 that approximates it; ≥ and ≤ were set here for values at or beyond the usual limits of such assays; details: source organism: SARS-CoV1
HLA-A*11:01 = assay: as above; details: source organism: SARS-CoV1
[5] = source organism: Vaccinia virus
[6] = source organism: Vaccinia virus WR
[7] = source organism: Dengue virus 2 Jamaica/1409/1983
[8] = source organism: Lymphocytic choriomeningitis virus (strain Armstrong)
[9] = source organism: Sudan ebolavirus
[10] = source organism: Zaire ebolavirus
[11] = source organism: Dengue virus 4 Philippines/H241/1956
[12] = source organism: Dengue virus 1 Brazil/97-11/1997
[13] = source organism: SARS coronavirus Tor2
[14] = source organism: Triticum aestivum
[15] = source organism: Mammarenavirus brazilense
[16] = source organism: Mammarenavirus guanaritoense
[17] = source organism: Dengue virus 2 Peru/IQT2913/1996
[18] = source organism: Dengue virus 4 Thailand/0348/1991

Sequence: NVLDEKYNT
- IC50 (HLA-A*02:01 [1]; [5]): ≥ 319 µM

Sequence: KSHAIYWDK
- Kd (HLA-A*30:01; [6]): 0.0105 µM

Sequence: MTRLPILLL
- Kd (HLA-A*30:01; [6]): 0.000646 µM

Sequence: MLAESCDSV
- Kd (HLA-A*02:01 [2]; [5]): 0.0011 µM

Sequence: TLLQAAPTL
- IC50 (HLA-A*02:01 [1]; source organism: Mycobacterium tuberculosis): 0.05 µM

Sequence: GVVTRSGAY
- Kd (HLA-A*30:02; [7]): 0.00928 µM
- Kd (HLA-A*26:01; [7]): 0.836 µM

Sequence: PMMCPFLFL
- Kd (HLA-A*23:01; [8]): 0.22 µM
- Kd (HLA-A*24:02; [8]): 0.484 µM
- Kd (HLA-A*29:02; [8]): 0.208 µM

Sequence: LTTPENITT
- IC50 (HLA-A*02:01 [1]; [9]): ≥ 157 µM

Sequence: KRLEELLPA
- IC50 (HLA-A*02:01 [1]; [10]): ≥ 683 µM

Sequence: VLTLATGPVL
- Kd (HLA-A*30:01; [11]): 1.5 µM

Sequence: MRSRWSRKML
- Kd (HLA-A*30:01; [12]): 0.175 µM

Sequence: FMSNGEHVP
- IC50 (HLA-A*02:01 [1]; [6]): 57.6 µM

Sequence: LIDLQELGKY
- Kd (HLA-A*30:02; [13]): 0.0389 µM
- Kd (HLA-A*26:01; [13]): 1.02 µM
- Kd (HLA-A*23:01; [13]): ≥ 70 µM
- Kd (HLA-A*24:02; [13]): ≥ 70.3 µM
- Kd (HLA-A*29:02; [13]): 2.82 µM
- Kd (HLA-A*01:01 [3]; [13]): 0.116 µM

- Kd (HLA-A*30:02; [14]): 3.66 µM
- Kd (HLA-A*26:01; [14]): 0.205 µM
- Kd (HLA-A*23:01; [14]): ≥ 38.8 µM
- Kd (HLA-A*24:02; [14]): ≥ 70.3 µM
- Kd (HLA-A*29:02; [14]): 4.15 µM
- Kd (HLA-A*01:01 [3]; [14]): 0.415 µM
Sequence: ETLPAMCNVY

Sequence: KTSHAKVLV
- Kd (HLA-A*30:01; [6]): 0.0709 µM

Sequence: YSDRRWCFD
- Kd (HLA-A*01:01 [3]; [12]): 1.07 µM

Sequence: LYPLAIPVTM
- Kd (HLA-A*23:01; [11]): 0.336 µM
- Kd (HLA-A*24:02; [11]): 1.51 µM

Sequence: TCDGNTFTY
- Kd (HLA-A*01:01 [4]): 0.531 µM
- Kd (HLA-A*11:01): 2.48 µM
- Kd (HLA-A*30:02; [13]): 0.107 µM
- Kd (HLA-A*26:01; [13]): ≥ 38.6 µM
- Kd (HLA-A*23:01; [13]): ≥ 77.8 µM
- Kd (HLA-A*24:02; [13]): ≥ 23.9 µM
- Kd (HLA-A*29:02; [13]): 0.00685 µM

Sequence: AFLIGANYL
- Kd (HLA-A*30:02; [13]): ≥ 78.9 µM
- Kd (HLA-A*26:01; [13]): ≥ 77.9 µM
- Kd (HLA-A*23:01; [13]): ≥ 55.3 µM
- Kd (HLA-A*24:02; [13]): ≥ 45.9 µM
- Kd (HLA-A*29:02; [13]): ≥ 26.6 µM
- Kd (HLA-A*01:01 [3]; [13]): ≥ 73 µM

Sequence: WTEQYKFQA
- Kd (HLA-A*01:01 [3]; [12]): ≥ 20.2 µM

Sequence: AFEKMVSLL
- Kd (HLA-A*30:02; [13]): ≥ 81.1 µM
- Kd (HLA-A*26:01; [13]): ≥ 74.4 µM
- Kd (HLA-A*23:01; [13]): 8.39 µM
- Kd (HLA-A*24:02; [13]): 11.5 µM
- Kd (HLA-A*29:02; [13]): ≥ 27.4 µM
- Kd (HLA-A*01:01 [3]; [13]): ≥ 78.1 µM

Sequence: NGDVVAIDY
- Kd (HLA-A*30:02; [13]): 1.8 µM
- Kd (HLA-A*26:01; [13]): ≥ 81.5 µM
- Kd (HLA-A*23:01; [13]): ≥ 77.8 µM
- Kd (HLA-A*24:02; [13]): ≥ 77.6 µM
- Kd (HLA-A*29:02; [13]): 0.825 µM
- Kd (HLA-A*01:01 [3]; [13]): 1.03 µM

Sequence: LNASQYANC
- IC50 (HLA-A*02:01 [1]; source organism: Vaccinia virus Copenhagen): ≥ 1400 µM

Sequence: LFSGVSWVM
- Kd (HLA-A*24:02; source organism: Dengue virus 3 Martinique/1243/1999): 0.105 µM

Sequence: ICSSVLKRY
- Kd (HLA-A*30:02; [15]): 0.302 µM
- Kd (HLA-A*26:01; [15]): ≥ 77.9 µM
- Kd (HLA-A*23:01; [15]): 14.6 µM
- Kd (HLA-A*24:02; [15]): 15.4 µM
- Kd (HLA-A*29:02; [15]): ≥ 50.6 µM
- Kd (HLA-A*01:01 [3]; [15]): 0.47 µM

Sequence: QSDTVFDHY
- Kd (HLA-A*30:02; source organism: Variola virus): 11.9 µM
- Kd (HLA-A*26:01; source organism: Variola virus): ≥ 77.9 µM
- Kd (HLA-A*23:01; source organism: Variola virus): ≥ 77.7 µM
- Kd (HLA-A*24:02; source organism: Variola virus): ≥ 77.5 µM
- Kd (HLA-A*29:02; source organism: Variola virus): ≥ 38 µM
- Kd (HLA-A*01:01 [3]; source organism: Variola virus): 0.0095 µM

Sequence: CYGVSATKL
- Kd (HLA-A*30:02; [13]): ≥ 81.1 µM
- Kd (HLA-A*26:01; [13]): ≥ 77.9 µM
- Kd (HLA-A*23:01; [13]): 12 µM
- Kd (HLA-A*24:02; [13]): ≥ 34.3 µM
- Kd (HLA-A*29:02; [13]): 12.2 µM
- Kd (HLA-A*01:01 [3]; [13]): ≥ 78.1 µM

Sequence: CLERWMLVA
- Kd (HLA-A*30:02; [16]): 14.9 µM
- Kd (HLA-A*26:01; [16]): ≥ 77.9 µM
- Kd (HLA-A*23:01; [16]): ≥ 77.7 µM
- Kd (HLA-A*24:02; [16]): ≥ 77.5 µM
- Kd (HLA-A*29:02; [16]): ≥ 78.9 µM
- Kd (HLA-A*01:01 [3]; [16]): 0.153 µM

Sequence: IVQPENLEY
- Kd (HLA-A*30:02; [17]): 0.11 µM
- Kd (HLA-A*01:01 [3]; [17]): 0.512 µM

Sequence: SSTNQLRSV
- IC50 (HLA-A*02:01 [1]; [10]): 48.2 µM

Sequence: DLCGSVFLV
- IC50 (HLA-A*02:01 [1]; source organism: Hepatitis C virus genotype 1): 5 µM

Sequence: LSLLQLPRD
- IC50 (HLA-A*02:01 [1]; [9]): ≥ 173 µM

Sequence: VWTLMNVITL
- Kd (HLA-A*30:02; [13]): 19.4 µM
- Kd (HLA-A*26:01; [13]): 1.5 µM
- Kd (HLA-A*23:01; [13]): 0.0622 µM
- Kd (HLA-A*24:02; [13]): 0.188 µM
- Kd (HLA-A*29:02; [13]): 0.0721 µM
- Kd (HLA-A*01:01 [3]; [13]): 2.72 µM

Sequence: VLFRLENHA
- Kd (HLA-A*02:01 [2]; source organism: Vaccinia virus WR 65-16): 0.0565 µM

Sequence: RGWGNGCGLF
- Kd (HLA-A*30:02; [18]): 0.0154 µM
- Kd (HLA-A*23:01; [18]): 0.898 µM

Sequence: ASTVIYRGT
- IC50 (HLA-A*02:01 [1]; [10]): ≥ 222 µM

Sequence: RTRAINKYS
- Kd (HLA-A*30:01; [6]): 0.0127 µM

- Kd (HLA-A*30:02; [14]): 0.639 µM
- Kd (HLA-A*26:01; [14]): ≥ 77.9 µM
- Kd (HLA-A*23:01; [14]): ≥ 49.4 µM
- Kd (HLA-A*24:02; [14]): ≥ 237 µM
- Kd (HLA-A*29:02; [14]): 0.23 µM
- Kd (HLA-A*01:01 [3]; [14]): ≥ 78.1 µM
Sequence: PYPQPQPQY
